From US20200405889A1 (WASHINGTON UNIVERSITY, published 2020)
Where no end group is shown, it is not given here. [ ]: non-standard residue; d: D form.

Target: mouse chemokine (C-C motif) receptor 2 (CCR2) (mouse, UniProt P51683 1-373)
Assay: cell-based or functional assay

Sequence of mouse chemokine (C-C motif) receptor 2 (CCR2) (P51683 whole entry): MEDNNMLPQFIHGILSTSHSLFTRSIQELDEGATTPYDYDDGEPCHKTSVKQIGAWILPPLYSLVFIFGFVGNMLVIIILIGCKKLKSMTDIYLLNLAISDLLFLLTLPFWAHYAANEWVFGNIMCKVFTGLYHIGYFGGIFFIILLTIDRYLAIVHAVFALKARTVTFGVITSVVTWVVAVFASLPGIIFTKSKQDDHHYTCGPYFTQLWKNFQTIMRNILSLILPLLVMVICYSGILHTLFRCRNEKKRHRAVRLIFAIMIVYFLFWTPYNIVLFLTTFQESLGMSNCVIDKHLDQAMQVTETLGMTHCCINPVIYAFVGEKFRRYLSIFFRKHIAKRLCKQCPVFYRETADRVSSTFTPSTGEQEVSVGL

B1: ^64CuAuNCs-ECL1i (other)
peptide: [dL]G[dT][dF][dL][dK][dC]
modifications: not fully specified (residue 7); also: peptide joined via TA-PEG-Maleimide to a gold nanocluster doped with 64Cu, copy number not given here
graft/native lung uptake ratio, PET at 4 hours: 7.24 ratio
graft/native lung uptake ratio, PET at 24 hours: 8.44 ratio
graft/native lung uptake ratio, PET, printed 'At 4 hours after transplantation': 6.58 ratio
